In paper PMC5156306:

Target: WT CCR5 (5555), HA-tagged, on transfected HEK293T cells (UniProt P51681)
Test: competition assay, flow cytometry on cells
Conditions: DyLight488-LukE 595 nM, LukD DN 565 nM, read off a plot
[1] = 74.5 nM unlabeled LukE variant, parent: est. 13
[2] = 149 nM unlabeled LukE variant, parent: est. 11
[3] = 298 nM unlabeled LukE variant, parent: est. 10
[4] = 596 nM unlabeled LukE variant, parent: est. 9.2

| Substance | response [1] [MFI] | response [2] [MFI] | response [3] [MFI] | response [4] [MFI] |
| --- | --- | --- | --- | --- |
| WT LukE LukE/LukS^DR1 (DR1, residues 57 to 75, replaced by the corresponding region of LukS-PV) | 19 | 18 | 15 | 14 |
| WT LukE LukE/LukS^DR2 (DR2, residues 140 to 150, replaced by the corresponding region of LukS-PV) | 13 | 11 | 9.8 | 9 |
| WT LukE LukE/LukS^DR3 (DR3, residues 164 to 178, replaced by the corresponding region of LukS-PV) | 15 | 12 | 11 | 9.7 |
| WT LukE LukE/LukS^DR4 (DR4, residues 182 to 196, replaced by the corresponding region of LukS-PV) | 12 | 9.9 | 9.3 | 8.3 |
